Laboratory results as given in publication PMC5366180.

Key:
[1] = target: T1, protein tyrosine kinase-7 (PTK7) ((Jurkat T-cells)) (UniProt Q13308); assay: competition (AFM single-molecule force spectroscopy); settings: 1 uM free sgc8c blocks; 38.3% before block; Aptamer tips prepared and stored in PBS; fixed Jurkat T-cells on Cell-Tak glass; pulling speeds 500-24000 nm/s; measurement buffer, pH and temperature not …; scale: % residual binding probability of tip sgc8c
T1 sequence: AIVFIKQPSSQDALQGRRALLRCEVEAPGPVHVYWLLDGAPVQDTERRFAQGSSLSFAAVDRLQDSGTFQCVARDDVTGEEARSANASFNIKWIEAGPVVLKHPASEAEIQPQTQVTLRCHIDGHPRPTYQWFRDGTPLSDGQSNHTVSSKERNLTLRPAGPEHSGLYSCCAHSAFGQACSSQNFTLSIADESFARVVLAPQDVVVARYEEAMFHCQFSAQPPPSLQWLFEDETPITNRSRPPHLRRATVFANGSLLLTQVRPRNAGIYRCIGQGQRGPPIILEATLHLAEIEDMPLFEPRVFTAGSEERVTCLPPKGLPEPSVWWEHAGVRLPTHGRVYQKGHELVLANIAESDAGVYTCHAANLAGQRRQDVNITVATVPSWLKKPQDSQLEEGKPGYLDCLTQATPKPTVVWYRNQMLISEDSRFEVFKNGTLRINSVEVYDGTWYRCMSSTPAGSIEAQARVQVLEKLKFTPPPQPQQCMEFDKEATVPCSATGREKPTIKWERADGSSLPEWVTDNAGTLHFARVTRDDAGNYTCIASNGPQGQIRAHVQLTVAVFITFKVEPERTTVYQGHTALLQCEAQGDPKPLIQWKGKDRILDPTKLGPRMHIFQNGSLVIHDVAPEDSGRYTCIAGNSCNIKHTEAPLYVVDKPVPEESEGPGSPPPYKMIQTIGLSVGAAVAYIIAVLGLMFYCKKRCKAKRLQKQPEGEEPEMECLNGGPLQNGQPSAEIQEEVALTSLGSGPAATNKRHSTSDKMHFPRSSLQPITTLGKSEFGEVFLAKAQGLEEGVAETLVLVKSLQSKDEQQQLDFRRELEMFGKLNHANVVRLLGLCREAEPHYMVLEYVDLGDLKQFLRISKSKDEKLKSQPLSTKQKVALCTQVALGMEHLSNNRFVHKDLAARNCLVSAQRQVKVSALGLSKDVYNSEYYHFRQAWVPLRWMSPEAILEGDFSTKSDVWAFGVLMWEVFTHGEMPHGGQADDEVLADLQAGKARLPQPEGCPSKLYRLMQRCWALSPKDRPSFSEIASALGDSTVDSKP

[2] = target: T1, protein tyrosine kinase-7 (PTK7) ((Jurkat T-cells)); assay: cited value; settings: 5' NH2 or 5' SH; Aptamer tips prepared and stored in PBS; fixed Jurkat T-cells on Cell-Tak glass; pulling speeds 500-24000 nm/s; measurement buffer, pH and temperature not …; cited from earlier work
[3] = target: T1, protein tyrosine kinase-7 (PTK7) ((Jurkat T-cells)); assay: AFM single-molecule force spectroscopy; settings: fixed Jurkat T-cells on Cell-Tak glass, pulling speeds 500-24000 nm/s, measurement buffer, pH and temperature not …

## ATCTAACTGCTGCGCCGCGAAAATACTGTACGGTTAGA [sgc8c (free)]
[1]
  binding signal: 10.2

## ATCTAACTGCTGCGCCGCGAAAATACTGTACGGTTAGA [sgc8c (tip-tethered)]
[2]
  Kd: 0.8 nM
[3]; koff 5.16 ± 0.19 s-1, x_beta 0.65 ± 0.01 Å, 5' NH2 or 5' SH, Aptamer tips prepared and stored in PBS
  binding signal (% binding probability): 38.3

## CACCGGGAGGATAGTTCGGTGGCTGTTCAGGGTCTCCTCCCGGTG [TDO5]
[3]; background level, stated not to bind PTK7, 5' NH2, Aptamer tips prepared and stored in PBS
  binding signal (% binding probability): 8.27
